The record followed here is patent US20220112288A1 (published 2022).

The term Kd denotes the constant that tells how readily two partners part at equilibrium. The term koff denotes the rate constant with which the complex falls apart. In general, kon refers to the rate constant with which the complex forms.

The labels stand for the following.
B1: 75110_07B16A (antibody, V domains shown)
VH: QVQLQQWGAGLLKPSETLSLTCAVYGGSFSGYYWSWIRQSPGKGLEWIGEINQSGSTNYNPSLKSRVTISVDTSKDQFSLKLSSVTAADTAVYYCARVINWFDSWGQGSLVTVSS
VL: DIQMTQSPSSVSASVGDRVTITCRASQGISSWLAWYQQKPGKAPKLLIYDASSFQSGVPSRFSGSGSGTDFTLTISSLQTDDFATYYCQQANSFPYTFGQGTKLEIK
notes: Tested as antibody purified from AlivaMab Mouse Kappa hybridoma (human V regions, kappa light chain, mouse Fc captured by anti-mouse Fc sensors)
B2: 75110_11D03A (antibody, V domains shown)
VH: EVQLVESGGGLVQPGGSLRLSCAASGFTFSSYWMSWVRQAPGKGLEWVANINQDGNEKYYVDSVKGRFTISRDNAKNSLFLQMNSLRAEDTAVYYCAREGGQWLALDYWGQGALVTVSS
VL: DIQMTQSPSSVSASVGDRVTITCRASQGISSWLAWYQQKPGKAPKFLISGASSLQSGVPSRFSGSGSGTDFTLTISSLQPEDFATYYCQQANSFPWTFGQGTKVEIK
notes: as for B1
B3: 75110_09N20A (antibody, V domains shown)
VH: EVQLVESGGGLVQPGGSLRLSCAASGFTFSSYWMSWVRQAPGKGLEWVANINEDGSEKYYVDSVKGRFTISRDNAKNSLYLQMNSLRAEDTAVYYCVREGGQWLALDYWGQGTLVTVSS
VL: DIQMTQSPSSVSASVGDRVTITCRASQGISSWLAWYQQKPGKAPKLLIYAASSLQSGVPSSFSGSGSGTDFTLTINSLQPEDFATYYCQQANSFPWTFGQGTKVAIK
notes: as for B1
B4: 75110_07H07A (antibody, V domains shown)
VH: EVQVVESGGGLVQPGGSLRLSCAASGFTFSSYWMSWVRQAPGKGLEWVANIKEEGSEKYYVDSVKGRFTISRDNAKNSLYLQMNSLRAEDTAVYYCVREGGQWLALDYWGQGTLVTVSS
VL: DIQMTQSPSSVSGSVGDRVTITCRASQGISSWLAWYQQKPGKAPKLLIFGASSLQSGVPSRFSGSGSGTDFTLTISSLQPEDFATYYCQQANSFPWTFGQGTKVQIK
notes: as for B1
B5: 75110_09G15A (antibody, V domains shown)
VH: EVQLVESGGGLVQPGGSLRLSCAASGFTFSDYWMSWVRQAPGKGLEWVANINQDGSEKYSVDSVKGRFTISRDNAKNSLYLQMNSLRAEDTAIFYCAREGGQWLALDYWGQGTLVTVSS
VL: DIQMTQSPSSVSASVGDRVTITCRASQGISSWLAWYQQKPGKAPKLLIYGASSLQSGVPSRFSGSGSGTDFTLTINSLQPEDFTTYYCQQANIFPWTFGQGTKVEIK
notes: as for B1
B6: 75110_12H17A (antibody, V domains shown)
VH: EVQLVESGGGLVQPGGSLRLSCAASGFTFSDYWMSWVRQAPGKGLEWVANIKEDGNEKYYVDSVKGRFTISRDNAKNSLFLQMNSLRAEDTAVYYCAREGGQWLALDYWGQGALVTVSS
VL: DIQMTQSPSSVSASVGDRVTITCRASQGISSWLAWYQQKPGKAPKFLISGASSLQSGVPSRFTGSGSGTDFTLTISSLQPEDFATYYCQQANSFPWTFGQGTKVEIK
notes: as for B1
B7: 75110_12C19A (antibody, V domains shown)
VH: EVQLVESGGGLVQPGGSLRLSCAASGFTFSSYWMSWVRQAPGKGLEWVANIKEDGSDKYYVDSVKGRFTISRDNAKNSLYLQMNSLRAEDTAVHYCVREGGQWLALDYWGQGTLVTVSS
VL: DIQMTQSPSSVSGSVGDRVTITCRASQGISSWLAWYQQKPGKAPKLLIYGASSLQSGVPSRFSGSGSGTDFTLTISSLQPEDFVTYYCQQANSFPWTFGQGTKVEIK
notes: as for B1

For this assay, the target named is T1, Recombinant human CD4 (R&D Systems, Cat. 10327-CD) (human, UniProt P01730 26-390, limits assumed).
T1 construct: Bought protein; also called huCD4
Nature of the assay: BLI (Octet Red384), purified antibody on anti-mouse Fc sensors, human CD4 100/50/25 nM, global 1:1 fit.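 Note: antibodies loaded at 10 µg/mL, curves fitted across association and dissociation phases, with an unrelated mouse-derived antibody serving as internal reference control.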
As to B1, the Kd was 3 nM, the Response was 0.24, the koff was 0.00043 s⁻¹ and the kon was 140000 M⁻¹ s⁻¹.
The matching figures for B2: 3.2 nM, 0.09, 0.0013 s⁻¹ and 420000 M⁻¹ s⁻¹.
Turning to B3, the Kd was 53 nM, the Response amounted to 0.09, the koff stood at 0.0045 s⁻¹ and the kon is 86000 M⁻¹ s⁻¹.
As to B4, the Kd was 9.4 nM, the Response is 0.16, the koff is 0.0012 s⁻¹ and the kon came to 130000 M⁻¹ s⁻¹.
B5: the Kd is 48 nM, the Response was determined as 0.21, the koff is 0.004 s⁻¹ and the kon was 85000 M⁻¹ s⁻¹.
Regarding B6, the Kd amounted to 26 nM, the Response worked out at 0.19, the koff worked out at 0.0033 s⁻¹ and the kon was found to be 120000 M⁻¹ s⁻¹.
For B7, the Kd was found to be 5 nM, the Response worked out at 0.08, the koff was found to be 0.0015 s⁻¹ and the kon worked out at 290000 M⁻¹ s⁻¹.
